{
  "source": "paper PMC8692152",
  "about": "“Cellular Id1 inhibits hepatitis B virus transcription by interacting with the novel covalently closed circular DNA-binding protein E2F4”",
  "key": {"[1]": {"target": "T1, E2F4 1-88 (UniProt Q16254 1-88)", "T1 sequence (Q16254 1-88)": "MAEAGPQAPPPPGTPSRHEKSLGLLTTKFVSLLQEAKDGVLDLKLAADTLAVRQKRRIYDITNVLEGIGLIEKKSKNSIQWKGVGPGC", "assay": "ITC; SPR: Biacore X100, SA chip, DNA in PBS (137 mM NaCl, 2.7 mM KCl, 10 mM Na2HPO4, 2 mM KH2PO4, pH 7.4), protein 10-320 nM (Fig. S3D legend prints mM); ITC: 250 mM NaCl, 50 mM Tris-HCl pH 7.5; EMSA: Beyotime kit, 6% native gel; temperatures not stated", "conditions": "protein: recombinant; tags: GST removed with 3C protease (ITC methods); pET28 His construct also described; chain copies: 2; blunt"}, "[2]": {"target": "T1, E2F4 1-88", "assay": "ITC; error exceeds value; SPR: Biacore X100, SA chip, DNA in PBS (137 mM NaCl, 2.7 mM KCl, 10 mM Na2HPO4, 2 mM KH2PO4, pH 7.4), protein 10-320 nM (Fig. S3D legend prints mM); ITC: 250 mM NaCl, 50 mM Tris-HCl pH 7.5; EMSA: Beyotime kit, 6% native gel; temperatures not stated", "conditions": "protein: recombinant; tags: GST removed with 3C protease (ITC methods); pET28 His construct also described; chain copies: 2; blunt"}, "[3]": {"target": "T2, E2F4 1-180 (UniProt Q16254 1-180)", "T2 sequence (Q16254 1-180)": "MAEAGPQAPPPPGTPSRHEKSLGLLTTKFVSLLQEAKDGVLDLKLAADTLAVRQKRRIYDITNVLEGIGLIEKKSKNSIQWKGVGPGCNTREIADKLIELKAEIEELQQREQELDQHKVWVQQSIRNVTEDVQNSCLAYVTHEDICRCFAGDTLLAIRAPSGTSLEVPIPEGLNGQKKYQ", "assay": "SPR; random control DNA; SPR: Biacore X100, SA chip, DNA in PBS (137 mM NaCl, 2.7 mM KCl, 10 mM Na2HPO4, 2 mM KH2PO4, pH 7.4), protein 10-320 nM (Fig. S3D legend prints mM); ITC: 250 mM NaCl, 50 mM Tris-HCl pH 7.5; EMSA: Beyotime kit, 6% native gel; temperatures not stated", "conditions": "protein: recombinant; tags: His (pET28a); chain copies: 2; label: 5'-biotin on sense strand; blunt"}, "[4]": {"target": "T2, E2F4 1-180", "assay": "SPR; SPR: Biacore X100, SA chip, DNA in PBS (137 mM NaCl, 2.7 mM KCl, 10 mM Na2HPO4, 2 mM KH2PO4, pH 7.4), protein 10-320 nM (Fig. S3D legend prints mM); ITC: 250 mM NaCl, 50 mM Tris-HCl pH 7.5; EMSA: Beyotime kit, 6% native gel; temperatures not stated", "conditions": "protein: recombinant; tags: His (pET28a); chain copies: 2; label: 5'-biotin on sense strand; blunt"}},
  "data": [
    {"binder": "Cp2 (ITC) (dsDNA) DNA 1: TTAGATTAAAGGTCTTTGT DNA 2: ACAAAGACCTTTAATCTAA", "values": [
      {"measurement": "Kd", "setting": "[1]", "value": "10.3 ± 4.37", "unit": "µM"}
    ]},
    {"binder": "Cp2-mut (ITC) (dsDNA) DNA 1: TTAGATTAAATTTCTTTGT DNA 2: ACAAAGAAATTTAATCTAA", "values": [
      {"measurement": "Kd", "setting": "[2]", "value": "19.6 ± 31.2", "unit": "µM"}
    ]},
    {"binder": "Control-DNA-biotin (SPR) (dsDNA) DNA 1: ATGATGTCACCACAAGAAGT DNA 2: ACTTCTTGTGGTGACATCAT", "values": [
      {"measurement": "Kd", "setting": "[3]", "value": 0.136, "unit": "µM"}
    ]},
    {"binder": "Biotin-Cp2 (SPR) (dsDNA) DNA 1: TTAGATTAAAGGTCTTTGT DNA 2: ACAAAGACCTTTAATCTAA", "values": [
      {"measurement": "Kd", "setting": "[4]", "value": 0.0878, "unit": "µM"}
    ]}
  ]
}
